The DeepSol protein solubility set

Experiment: soluble on expression in E. coli; label from the status in PepcDB or PDB records

Sequence	soluble on expression in E. coli
MGSSHHHHHHGGTGENLYFQGGSGLLMRSSSPAATVQATHQRVQSAQERHVRREYASDVNTPRALSVRSSRGGSFAFAPQVQEKYNTMNILVLGAPQVGKSLFINSYRAAITNTTRWPAAPVGISGFYGTTTVAPFPNHARQPTWLCIDTPGSLYTEKHAVLLEKLTEGMPWKTKLKGPNALTLRQIKDISPIAANKAHQCIIVVPATDLIEDDGLINTLLWRNRYRPAGGVADIIFYLKGLISSLRTLMDDASPFVVVTKMDKVGGARNSSACAALVSILGQCVPVNHVYFTAAVENRALLATGRTMVLESSTKQNLVRLHEDICLAVQWRNQVDAM	not soluble
MGSSHHHHHHGGTGENLYFQGGSGMAYRHQATDQFHRFLHNPHVVQPDGVDGLPRVKGDQQQWLNTEQWHGYSDTYLQRHMQYPATVELNNPAVNARHDLLYECLGLVYELYGGLAEDLQELHDDPLHPHFHRRIARIKRDRERIATELDKRYAKLHPTVKTVYDAFLVRRYYHLADWIEHVERKRERLINDLSPDVMEKTMRMRGIAEQYLRHLRALEHALYEDPLMGLLGGDRGTNVLDQYTPGELAMLRQKAAYFRNMRRFGANQLDADMHTH	soluble
MGSSHHHHHHGGTGENLYFQGGSGMKGVTSFTVYGLVPAADFQRCAEAAAYVNDKYPESYAVIVKLELPRDFAERRAAWASAGHLPSQQQQPTDASFGESGGSATTASTAAAELAAVLVEQHGSDSEPQCLLTAETFLHNIATHTDYKPDATEDYYTARGKRAWRAFLASRGRQYCWMDVSVDGVAVGRVWFELYASVAPLTCKNFCELCRGTTVAMGDTVAHSSVFDPPPAQHIGYKGTTFFRTLKDAWVMGGDVTGAHSGNGGYSCYGRCFPDETYAVPHDAAGILGMCNDGPHTSSSAFYITLRPMSWMNGKYVAFGRVMDGMHVVDAIHAVEARHNQAPKASIVITDCDVLDTSV	soluble
MGSSHHHHHHNFYDSDPHISELTPKSFDKAIHNTNYTSLVEFYAPWCGHCKKLSSTFRKAAKRLDGVVQVAAVNCDLNKNKALCAKYDVNGFPTLMVFRPPKIDLSKPIDNAKKSFSAHANEVYSGARTLAPIVDFSLSRIRSYVKKFVRIDTLGSLLRKSPKLSVVLFSKQDKISPVYKSIALDWLGKFDFYSISNKKLKQLTDMNPTYEKTPEIFKYLQKVIPEQRQSDKSKLVVFDADKDKFWEYEGNSINKNDISKFLRDTFSITPNEGPFSRRSEYIAYLKTGKKPIKKNHSS	soluble
MGSSHHHHHHSSGLEVLFQGPHMSYQVLARKWRPQTFADVVGQEHVLTALANGLSLGRIHHAYLFSGTRGVGKTSIARLLAKGLNCETGITATPCGVCDNCREIEQGRFVDLIEIDAASRTKVEDTRDLLDNVQYAPARGRFKVYLIDEVHMLSRHSFNALLKTLEEPPEHVKFLLATTDPQKLPVTILSRCLQFHLKALDVEQIRHQLEHILNEEHIAHEPRALQLLARAAEGSLRDALSLTDQAIASGDGQVSTQAVSAMLGTLDDDQALSLVEAMVEANGERVMALINEAAARGIEWEALLVEMLGLLHRIAMVQLSPAALGNDMAAIELRMRELARTIPPTDIQLYYQTLLIGRKELPYAPDRRMGVEMTLLRALAFHPRMPLPEPEVPRQ	soluble
MGSSHHHHHHSSGLVPRGSHMEAPAAVVTGAAKRIGRAIAVKLHQTGYRVVIHYHNSAEAAVSLADELNKERSNTAVVCQADLTNSNVLPASCEEIINSCFRAFGRCDVLVNNASAFYPTPLVQGDHEDNSNGKTVETQVAELIGTNAIAPFLLTMSFAQRQKGTNPNCTSSNLSIVNLCDAMVDQPCMAFSLYNMGKHALVGLTQSAALELAPYGIRVNGVAPGVSLLPVAMGEEEKDKWRRKVPLGRREASAEQIADAVIFLVSGSAQYITGSIIKVDGGLSLVHA	soluble
MGSSHHHHHHSSGLVPRGSHMGSSHHHHHHSSGLVPRGSHMSQLAHNLTLSIFDPVANYRAARIICTIGPSTQSVEALKGLIQSGMSVARMNFSHGSHEYHQTTINNVRQAAAELGVNIAIALDTKGPEIRTGQFVGGDAVMERGATCYVTTDPAFADKGTKDKFYIDYQNLSKVVRPGNYIYIDDGILILQVQSHEDEQTLECTVTNSHTISDRRGVNLPGCDVDLPAVSAKDRVDLQFGVEQGVDMIFASFIRSAEQVGDVRKALGPKGRDIMIICKIENHQGVQNIDSIIEESDGIMVARGDLGVEIPAEKVVVAQKILISKCNVAGKPVICATQMLESMTYNPRPTRAEVSDVANAVFNGADCVMLSGETAKGKYPNEVVQYMARICLEAQSALNEYVFFNSIKKLQHIPMSADEAVCSSAVNSVYETKAKAMVVLSNTGRSARLVAKYRPNCPIVCVTTRLQTCRQLNITQGVESVFFDADKLGHDWGKEHRVAAGVEFAKSKGYVQTGDYCVVIHADHKVKGYANQTRILLVE	soluble
MGSSHHHHHHSSGLVPRGSHMILTLTLNPSVDISYPLTALKLDDVNRVQEVSKTAGGKGLNVTRVLAQVGEPVLASGFIGGELGQFIAKKLDHADIKHAFYNIKGETRNCIAILHEGQQTEILEQGPEIDNQEAAGFIKHFEQLLEKVEAVAISGSLPKGLNQDYYAQIIERCQNKGVPVILDCSGATLQTVLENPYKPTVIKPNISELYQLLNQPLDESLESLKQAVSQPLFEGIEWIIVSLGAQGAFAKHNHTFYRVNIPTISVLNPVGSGDSTVAGITSAILNHENDHDLLKKANTLGMLNAQEAQTGYVNLNNYDDLFNQIEVLEV	soluble
MGSSHHHHHHSSGLVPRGSHMKIAFVIRKDCSRCARIAESIIDLLPKDWEIIYDHEAAKFLNSKGLDISQISADVIITIGGDGTVLRTLQMAKGPVLGINMGGLGFLTELEVDEVGSAIFKLIKGQYRITESMKLKVEINGDRVEDCTNEAVVHTERIARIRQFKIYIDGHFLSTMKSDGIIVATPIGSSSYSSSAGGPLLLPTLKGMVISYLAPYSSRLKPVVVTSDSTVEIKIAGRDQECILILDGQREYTVRSGDTVRISRSENSARFLSFRESVYDRIRDKVIKHVVN	soluble
MGSSHHHHHHSSGLVPRGSHMQQLPKAIIIGVRKGGTRALLEMLNLHPAVVKASQEIHFFDNDENYGKGIEWYRKKMPFSYPQQITIEKSPAYFITEEVPERIYKMNSSIKLLIIVREPTTRAISDYTQVLEGKERKNKTYYKFEKLAIDPNTCEVNTKYKAVRTSIYTKHLERWLKYFPIEQFHVVDGDRLITEPLPELQLVEKFLNLPPRISQYNLYFNATRGFYCLRFNEIFNKCLAGSKGRIHPEVDPSVITKLRKFFHPFNQKFYQITGRTLNWP	soluble
MGSSHHHHHHSSGLVPRGSHMRLCHPCPWEWTFFQGNCYFMSNSQRNWHDSITACKEVGAQLVVIKSAEEQNFLQLQSSRSNRFTWMGLSDLNQEGTWQWVDGSPLLPSFKQYWNRGEPNNVGEEDCAEFSGNGWNDDKCNLAKFWICKKSAASCSRDEEQFLSPAPATPNPPPA	soluble
MGSSHHHHHHSSGLVPRGSHMSGSGSGSGTALTPSYLKDDDGRSLILRGFNTASSAKSAPDGMPQFTEADLAREYADMGTNFVRFLISWRSVEPAPGVYDQQYLDRVEDRVGWYAERGYKVMLDMHQDVYSGAITPEGNSGNGAGAIGNGAPAWATYMDGLPVEPQPRWELYYIQPGVMRAFDNFWNTTGKHPELVEHYAKAWRAVADRFADNDAVVAYDLMNEPFGGSLQGPAFEAGPLAAMYQRTTDAIRQVDQDTWVCVAPQAIGVNQGLPSGLTKIDDPRAGQQRIAYCPHLYPLPLDIGDGHEGLARTLTDVTIDAWRANTAHTARVLGDVPIILGEFGLDTTLPGARDYIERVYGTAREMGAGVSYWSSDPGPWGPYLPDGTQTLLVDTLNKPYPRAVAGTPTEWSSTSDRLQLTIEPDAAITAPTEIYLPEAGFPGDVHVEGADVVGWDRQSRLLTVRTPADSGNVTVTVTPAA	soluble
MGSSHHHHHHSSGLVPRGSPQPPADEQPEPRTRRRAYLWCKEFLPGAWRGLREDEFHISVIRGGLSNMLFQCSLPDTTATLGDEPRKVLLRLYGAILQMRSCNKEGSEQAQKENEFQGAEAMVLESVMFAILAERSLGPKLYGIFPQGRLEQFIPSRRLDTEELSLPDISAEIAEKMATFHGMKMPFNKEPKWLFGTMEKYLKEVLRIKFTEESRIKKLHKLLSYNLPLELENLRSLLESTPSPVVFCHNDCQEGNILLLEGRENSEKQKLMLIDFEYSSYNYRGFDIGNHFCEWMYDYSYEKYPFFRANIRKYPTKKQQLHFISSYLPAFQNDFENLSTEEKSIIKEEMLLEVNRFALASHFLWGLWSIVQAKISSIEFGYMDYAQARFDAYFHQKRKLGV	soluble
MGSSHHHHHHSSGLVPRGSVCMTEIATTSGARSVGLLSVGAYRPERVVTNDEICQHIDSSDEWIYTATGIKTRRFAADDESAASMATEACRRALSNAGLSAADIDGVIVTTNTHFLQTPPAAPMVAASLGAKGILGFDLSAGCAGFGYALGAAADMIRGGGAATMLVVGTEKLSPTIDMYDAGNCFIFADGAAAVVVGETPFQGIGPTVAGSDGEQADAIRQDIDWITFAQNPSGPRPFVRLEGPAVFRWAAFKMGDVGRRAMDAAGVRPDQIDVFVPHQANSRINELLVKNLQLRPDAVVANDIEHTGNTSAASIPLAMAELLTTGAAKPGDLALLIGYGAGLSYAAQVVRMPKG	soluble
MGSSHHHHHHSSGRENLYFQGHMTLTSIGPANRMARSAETHPLTWRLREDAQPVWLEEYQSKDGYAAARKALTQMAQDDIVQTVKDSGLKGRGGAGFPTGVKWGLMPKDESLNIRYLLCNADEMEPNTWKDRMLMEQLPHLLVEGMLISARALKAYRGYIFLRGEYVDAARNLNRAIDEAKAAGLLGKNILGSGFDFELFVHTGAGRYICGEETALINSLEGRRANPRSKPPFPAAVGVWGKPTCVNNVETLCNVPAIVGNGVDWYKTLARPGSEDMGTKLMGFSGKVKNPGLWELPFGVSARELFEDYAGGMRDGFQLKAWQPGGAGTGFLLPEHLDAQMFAGGIAKVGTRMGTGLAMAVDDSINMVSLLRNMEEFFARESCGWCTPCRDGLPWSVKLLRALERGEGQPGDLETLEQLVNFLGPGKTFCAHAPGAVEPLGSALKYFRAEFEAGISRQPSAAPRPATVGA	soluble
MGSSHHHHHHSSGRENLYFQGMTLKAGIVGIGMIGSDHLRRLANTVSGVEVVAVCDIVAGRAQAALDKYAIEAKDYNDYHDLINDKDVEVVIITASNEAHADVAVAALNANKYVFCEKPLAVTAADCQRVIEAEQKNGKRMVQIGFMRRYDKGYVQLKNIIDSGEIGQPLMVHGRHYNASTVPEYKTPQAIYETLIHEIDVMHWLLNEDYKTVKVYFPRQSSLVTTLRDPQLVVMETTSGINIVVEVFVNCQYGYDIHCDVTGEKGMAELPTVASAAVRKAAKYSTDILVDWKQRFIDAYDIEFQDFFDRLNAGLPPAGPTSWDGYLAAVTADACVKSQETGNTEIVELPSKPDFYK	soluble
MGSSQSTPKVQDANADAERIRKAQHSMAAAGGGSQCPLTPEQRAAASGENCGAGGACPVGADKASINPLNNELEHPNQKPAPDQPFALPTKREKSTIPKAGTETETWTYPSPQMFWNAMLKKGWRWQDDSLSKSDMENIISIHNANNEEAWREVLKWENLLHPECAEPKLKSFKGDAKNLSPRARFRNLFLGYDLPFDRHDWIVDRCGTKQVQYVIDYYDGGAVDPSSKLFTILDVRPAVNDIGNIWDRMVVAYWRFKFETLGFTPSLPIPPTEGHNVNH	not soluble
MGSSSSFSSSSSKLLFRQLFENESSTFTYLLADVSHPDKPALLIDPVDKTVDRDLKLIDELGLKLIYAMNTHVHADHVTGTGLLKTKLPGVKSVISKASGSKADLFLEPGDKVSIGDIYLEVRATPGHTAGCVTYVTGEGADQPQPRMAFTGDAVLIRGCGRTDFQEGSSDQLYESVHSQIFTLPKDTLIYPAHDYKGFEVSTVGEEMQHNPRLTKDKETFKTIMSNLNLSYPKMIDVAVPANMVCGLQDVPSQAN	soluble
